Assay results published in US20130316404A1.

Biological target: IL-10 receptor (IL-10R) on mouse splenocytes (mouse) (UniProt Q61727)
Experiment: cell-based or functional assay

Sequence of UniProt Q61727 (Q61727 17-575): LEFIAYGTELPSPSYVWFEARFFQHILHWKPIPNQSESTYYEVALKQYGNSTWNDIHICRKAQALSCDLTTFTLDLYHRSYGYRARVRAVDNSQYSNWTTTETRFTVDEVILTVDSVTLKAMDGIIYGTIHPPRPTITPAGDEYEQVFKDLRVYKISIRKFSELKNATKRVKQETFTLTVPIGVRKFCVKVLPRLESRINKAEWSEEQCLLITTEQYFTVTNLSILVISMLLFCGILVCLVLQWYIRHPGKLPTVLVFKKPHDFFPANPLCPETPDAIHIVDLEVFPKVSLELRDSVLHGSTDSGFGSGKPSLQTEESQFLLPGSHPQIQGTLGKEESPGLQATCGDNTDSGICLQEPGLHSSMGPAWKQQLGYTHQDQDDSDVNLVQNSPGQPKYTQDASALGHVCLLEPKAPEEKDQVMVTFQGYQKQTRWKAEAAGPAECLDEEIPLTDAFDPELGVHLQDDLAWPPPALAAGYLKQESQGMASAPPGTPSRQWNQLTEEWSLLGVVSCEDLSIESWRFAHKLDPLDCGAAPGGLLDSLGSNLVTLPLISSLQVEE

STAT3 phosphorylation in mouse splenocytes (Western blot), concentration giving equal signal [ng/mL]	Substance
10	stabilized recombinant IL-10 dimer (two wildtype murine IL-10 monomers joined C-terminus to N-terminus by a 7 amino acid peptide linker, one continuous polypeptide) (from UniProt P18893 19-178) (ligand)
100	recombinant wildtype mouse IL-10 expressed in human HEK293 cells (from UniProt P18893 19-178) (ligand)
